Results on 19 variants are retold here after the RNAGym collection of RNA variant scans (doi:10.1073/pnas.2313332121).

This sample holds only a part of the variants without activity.

B1: TPR 5TU (parent)
chain: GGAUCUUCUCGAUCUAACAAAAAAGACAAAUCUGCCACAAAGCUUGAGAGCAUCUUCGGAUGCAGAGGCGGCAGCCUUCGGUGGCGCGAUAGCGCCAACGUUCUCAACUAUGACACGCAAAACGCGUGCUCCGUUGAAUGGAGUUUAUCAUG

The variants in the series derive from B1. Description: polymerase ribozyme fitness, log enrichment relative to wild type (log ratio); higher = more active; in vitro selection for triplet polymerase activity. A digest of the protocol: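 Libraries of mutants in each subunit of a heterodimeric triplet polymerase ribozyme were generated by PCR and transcribed. In triplicate, each went through one in vitro selection round: annealing with biotinylated primer, partner subunit and triplets; frozen incubation at −7 °C; gel excision of extended constructs; streptavidin-bead capture; RT-PCR. Fitness, taken from Illumina sequencing of input and output libraries, is the logarithm of a genotype's enrichment over wild-type enrichment, averaged across replicates with inverse-variance weights. The logarithm is base 2, and genotypes needed ≥10 input reads and ≥1 read per output to be kept.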
As to GGAUCUUCUCGAUCUAACAAAAAAGACAAAUCUGCCACAAAGCUUGAGAGCAUCUUCGGAUGCAGAAGCGGCAGCCUUCGGUGGCGUGAUAGCGCCAACGUUUUCAACUAUGAGAUGCGAAACGCGUGCUCCGUUGAAUGGAGUUUAUCAUG [G67A C87U C103U C114G C116U A119G], the “polymerase ribozyme fitness (log ratio)” value was at most -4.2.
As to GGAUCUUCUCGAUCUAACAAAAAAGACAAAUCUGCCACAAAGCUUGAGAGCAUCUUCGGAUGCAGAGGCGGCAGCCUUCGGUGGCUCGUUAGCGCCAACGUUCUCAACUAUGACACGCAAAACGCGUGCUCCGUUGAAUGGAGUUUAUCAUG [G86U A89U], the “polymerase ribozyme fitness (log ratio)” value is -2.62.
Regarding GGACCUUCUCGAUCUAACAAAACAGACAAAUCUGCCACAAAGUUUAAGAGCAUCUUCGGAUGCAGAGGCGGCAGCCUUCGGUGACGCGAUAGCGCCAACGUUCUGAACUAUGACACGUCAAACGCGUGCUCCGUUGAAUGGAGUUUAUCAUG [U4C A23C C43U G46A G84A C105G C118U A119C], the “polymerase ribozyme fitness (log ratio)” value is at most -4.2.
Turning to GGAUCUUCUCGAUCUAACAAAAAAGACAAAUCUGCCACAAAGCUUGAGAGCAUCUUUGCAUGCAGAGGGGGCAGCCUUCGGUGGCGCGAUAGCGCAAACGUUCUCAACUAUGACACGCAAAACGCGUGCUCCGUUGAAUGGAGUUUAUCAUG [C57U G59C C69G C96A], the “polymerase ribozyme fitness (log ratio)” value is -1.45.
On to GGAUCUUCUCGAUCUAACUAAAAAGACAAUUCUGCCACAAAGCUUGAGAGCAUCUUCGGAUGCAGAGGCGGCAGCCUUCGGUGGCGCGAGCGCGCCAACGUUCUCAACUAUGACACGGAAAACGCGUGCUCCGUUGAAUGGAGUUUAUCAUG [A19U A30U U90G A91C C118G], for which the “polymerase ribozyme fitness (log ratio)” value was at most -4.2.
For the variant GGAUCUUCUCGAUCUAACAAAAAAGACAAAUCUGUCACAAAGCUUGAGAGCAUCUUCGGAUGCAGAGGCGGCAGCCUUCGGUGGCGCGAUAGCGUAAACGUUCUCAACUAUGACACGCAAAACGCGUGCUCCGUUGAAUGGAGUUUAUCAUG [C35U C95U C96A], the “polymerase ribozyme fitness (log ratio)” value is -1.64.
As to GGAUCUUCUCGAUCUAACAAAAAAGACAAAUCUGCCACAAAGCUUGAGAGCAUCUUCGGAUGCAGAGGCGGCAGCCUUCGGUGGCGCGAUAGCGAGAACGUUCUCAACUAUGACACGCAAAACGCGUGCUCCGUUGAAUGGAGCUUAUCAUG [C95A C96G U144C], the “polymerase ribozyme fitness (log ratio)” value is -2.34.
Take GGAUCUUCUCGAUCUAACAAAAAAGACAAAUCUGCCACAAAGCGUGAAAGCAUCUUCGGAUGCAGAGGCGGCAGCCUUCGGUCGCGCGAUAGCGCCAACGUUCUCAACUAUGACACGCAAAACGCGUGCUCCGUUGAAUGGAGUUUAUCAUG [U44G G48A G83C]: the “polymerase ribozyme fitness (log ratio)” value is at most -4.2.
As to GGAUCUUCUCGAUCUAACAAAAAAGACAAAUCUGCCACAAAGCUUGAGAGCAUCUUCGGAUGCAGAGGCGGCAGCCUUCGGUGGCGUGAUAGCGCCAACGUUCUCAACUUUGACACGCACAACGCGUGCUCCGUAAAAUGGAGUUUAUCAUG [C87U A110U A120C U135A G136A], the “polymerase ribozyme fitness (log ratio)” value is at most -4.2.
With GGAUCAUCUCGAUCUAACAAAAAAGACAAAUCUGUCACAAAGCUUGAGAGCAUCUUCGGAUGCAGAGGCGGCAGCCUUCGGUGGCGCGAUAGCGGCAACAUUCUCAACUAUGACACGCAAAACGCGUGCUCCGUUGAAUGGAGUUUAUCAUG [U6A C35U C95G G100A], the “polymerase ribozyme fitness (log ratio)” value is at most -4.2.
As to GGAUCUUCUCGAUCUCACAAAAAAGACAAAUCUGCCACAAAGCUUGAGAGCAUCUUCGGAUGCAGAGGCGGCAGCCUUCGGUGGCGCGAUAGCGCCAACGUUCUCAACUAUGACACGCAAAACGCGUGCUCCGUAGAAUGGAGUUUAUCAUG [A16C U135A], the “polymerase ribozyme fitness (log ratio)” value was -2.12.
Turning to GGAUCUUCUCGAUCUAACAAAAAAGACAAAUCUGCCACAAAGCUUGAGAGCAUCUUCGGAUGCAGAGGCGGCAGCCUUCGGUGGCGCGAUAGCGCCAACGUUCUCAACUAUGACACGUAAAACUCGUGCUCCGUUGAAUGGCGUUUAUCAUG [C118U G124U A142C], the “polymerase ribozyme fitness (log ratio)” value is -1.96.
Consider GGAGCUUCUCGAUCUAACAAAAAAGGCAAAUCAGCCACAAAGCUUGAGAGCAUGUUCGGAUGCAGAGGCGGCAGCCUUCGGUGGCACUAGAGCGCCAACGUUCUCAACUAUGACACGCAAAACGCGUGCUCCGUUGAAUGGAGUUUAUCAUG [U4G A26G U33A C54G G86A G88U U90G], for which the “polymerase ribozyme fitness (log ratio)” value is at most -4.2.
For GGAUCUUCUCGAUCUAACAAAAAAGACAAAUCUGCCACAAAGCUUGAGAGCAACUUCGGAUGCAGAGGCGGCAGCCUCCGGUGGCGCGAUAGCGCCAACGUUCUCAACUAUGACACGCAAAACGCGUGCUCCGGUGAAUGGAGUUUAUCAUG [U53A U78C U134G] the value was -2.35; for GGAUCUUCUCGAUCUAACAAAAAAGACAAAUCUGCCACAAAGCUUGAGAGCUUCUUCGGAUGCAGAGGCGGCAGCCUUCGGUGACGCGAUAGCGCCAACGUUCUCAACUAUGACACCCAAAACGCGUGCUCCGUUGAAUGGAGUUUAUCAUG [A52U G84A G117C], -0.726.
As for GGAUCUUCUCGAUCUAACAAAAAAGACAAAUCUGCCACAAAGCUUGCGAGCAUCUUCGGAUGCAGAGGCGGCAGCCUUCGGUGGCGCGAUAGCGCUAACGUUCUCAACUAUGACACGCAAAACGCGUGCUCCGUUGAAUGGAGUUUAUCAUG [A47C C96U], the figure is 0.15; as for GGAUCUUCUCGAUCUAACAAAAAAGACAAAUCGGCCACAAAGCAUGAGAGCAUCUUCGGAUGCAGAGGCGGCAGCCUUCGGUGGCGCGAUAGAGCCAACGUUAUGAACUAUGACACGCAAAACGCGUGCUCCCUUGAAUGGAGUUUAUCAUG [U33G U44A C93A C103A C105G G133C], at most -4.2; as for GGAGCUUCUCGAUCUAACAAAAAAGACAAAUCUGCCACAAAGCUUGAGAGCAUCUUGGGAUGCAGAGGCGGCAGCCUUCGGUGGCGCGAUAGCGCCAACGUUCUCAACUAUGACACGCAAAACGCGUGCUCCGUUGAAUGGAGUUUAUCAUG [U4G C57G], -0.334.
In the case of GGAUCUUCUCGAUCUAACAAAAAAUACAAAUCUGCCACAAGGCUUGAGAGCAUCUUCGGAUGCAGAGGCGGCAGCCUUCGGUGGCGCGAUAGCGCCAACGUUCUCAACUAUGACACGCAAAACGCGUGCUCCGUUGAAUGGAGUUUAUCAUG [G25U A41G], the “polymerase ribozyme fitness (log ratio)” value is -0.833.
